Measurements reported in PMC7939477.

Target: PdGH110B (GH110 family α-1,3-galactosidase from Pseudoalteromonas distincta U2A) (Pseudoalteromonas distincta U2A)
Assay: dynamic light scattering; PdGH110B in solution at protein concentrations of 0.18, 0.37 and 0.73 mg/ml; monomer to dimer

stoichiometry N: 2
Substance: PdGH110B (GH110 family α-1,3-galactosidase from Pseudoalteromonas distincta U2A) (enzyme)
